Test results from IntAct's records for PubMed 17537733.

Molecular target: kdm1a_human KDM1A (UniProt O60341)

effect of a mutation on the interaction: decreasing interaction
Substance: Histone H3.1t (Homo sapiens) (from UniProt Q16695) K5M
